Assay results: patent publication US12534748B2, “Engineered beta-subunit of tryptophan synthase for production of non-canonical amino acids” (California Institute of Technology, priority 2015, dated 2026)

How the values were obtained:
[1] = substrate: c1ccc2[nH]ccc2c1; assay: Tryptophan formation from L-serine and indole, kinetics of TmTrpS complex; type: biochemical, Thermotoga maritima; settings: other: 75° C., pH 8.0
Method: (§1) Kinetics and UV-Vis Spectroscopy. Data were collected between 550 and 250 nm on a UV1800 Shimadzu spectrophotometer (Shimadzu) using 0.25-20 μM of enzyme in 200 mM potassium phosphate (pH 8.0) in a quartz cuvette. Samples were incubated at 75° C. for >3 min to ensure a stable temperature was reached. PfTrpB activity (kcat) was measured by monitoring tryptophan formation at 290 nm using Δe290=1.89 mM^−1·cm^−1.
(§2) Cloning, expression, and purification of the different orthologs. The genes encoding AfTrpB (UNIPROT ID O28672), TmTrpB (UNIPROT ID P50909) and EcTrpB (UNIPROT ID P0A879) were obtained from IDT and cloned into pET22(b)+ using Gibson Assembly. Protein expression was carried out in E. coli BL21 E. cloni Express cells (Lucigen) by inoculating 10-mL Terrific Broth (with 100 μg/mL ampicillin (TBamp)) with a single colony and incubated over night at 37° C. and 250 rpm. These overnight cultures were used to scale up to 500-mL TBamp expression cultures, which were grown by shaking at 250 rpm and 37° C. for ˜3 h or until an OD600 of 0.8 was reached. Then, after chilling the cultures on ice for 20 min, induction was conducted by the addition of IPTG to a final concentration of 1 mM. […]
TmTrpA gene was also obtained from IDT and cloned into pET22(b)+ using Gibson Assembly, but without including the C-terminal His-tag. […] Protein concentrations were determined via the Bradford assay (Bio-Rad).

[2] = substrate: c1ccc2[nH]ccc2c1; assay: Tryptophan formation from L-serine and indole, kinetics of wild-type TmTrpB; type: biochemical, Thermotoga maritima; settings: other: 75° C., pH 8.0
Method: The three TrpB homologs and their corresponding 0B2 variants were expressed and purified, and then their kinetic properties (kcat and KM of indole) were measured.

[3] = substrate: c1ccc2[nH]ccc2c1; assay: Tryptophan formation from L-serine and indole, kinetics of TmTrpB^triple; type: biochemical, Thermotoga maritima; settings: other: 75° C., pH 8.0
Method: as §1
as §2, with “reached.” for “reached. Then, after chilling the cultures on ice for 20 min, induction was conducted by the addition of IPTG to a final concentration of 1 mM.”
The next homolog, TmTrpB, was examined. […] The variants without the T292S mutation lacked this probative absorbance peak, but the decrease at 428 nm and concomitant increase at 350 nm are consistent with a similar, though less pronounced activation.

[4] = substrate: c1ccc2[nH]ccc2c1; assay: Tryptophan formation from L-serine and indole, kinetics of EcTrpB double mutant; type: biochemical, Escherichia coli; settings: other: 37° C., pH 8.0
Method: as §1, with “Samples were incubated at 75° C. for >3 min to ensure a stable temperature was reached.” left out
as §2, with “mM. Induced cultures were allowed to grow at 250 rpm and 20° C. for another 20 h. After centrifugation, pelleted cells were frozen and stored at −20° C. until further use.” for “mM.”

[5] = substrate: c1ccc2[nH]ccc2c1; assay: Tryptophan formation from L-serine and indole, kinetics of AfTrpB double mutant; type: biochemical, Archaeoglobus fulgidus; settings: other: 60° C., pH 8.0
Method: as §1, with “Samples were incubated at 75° C. for >3 min to ensure a stable temperature was reached.” left out
as §2, with “mM. Induced cultures were allowed to grow at 250 rpm and 20° C. for another 20 h. After centrifugation, pelleted cells were frozen and stored at −20° C. until further use.” for “mM.”

[6] = substrate: c1ccc2[nH]ccc2c1; assay: Tryptophan formation from L-serine and indole, kinetics of TmTrpB double mutant; type: biochemical, Thermotoga maritima; settings: other: 75° C., pH 8.0
Method: as §1
as §2, with “mM. Induced cultures were allowed to grow at 250 rpm and 20° C. for another 20 h. After centrifugation, pelleted cells were frozen and stored at −20° C. until further use.” for “mM.”

B1: Thermotoga maritima tryptophan synthase complex TmTrpS (TmTrpA + TmTrpB) (Thermotoga maritima MSB8) (protein)
chain: MKGYFGPYGGQYVPEILMPALEELEAAYEEIMKDESFWKEFNDLLRDYAGRPTPLYFARRLSEKYGARIYLKREDLLHTGAHKINNAIGQVLLAKKMGKTRIIAETGAGQHGVATATAAALFGMECVIYMGEEDTIRQKPNVERMKLLGAKVVPVKSGSRTLKDAINEALRDWITNLQTTYYVIGSVVGPHPYPIIVRNFQKVIGEETKKQILEKEGRLPDYIVACVGGGSNAAGIFYPFIDSGVKLIGVEAGGEGLETGKHAASLLKGKIGYLHGSKTFVLQDDWGQVQVTHSVSAGLDYSGVGPEHAYWRETGKVLYDAVTDEEALDAFIELSRLEGIIPALESSHALAYLKKINIKGKVVVVNLSGRGDKDLESVLNHPYVRERIRLEHHHHHH
Km [1]: 44 µM

B2: Thermotoga maritima tryptophan synthase beta-subunit TmTrpB, wild type, SEQ ID NO: 6 (Thermotoga maritima MSB8) (protein)
chain: MKGYFGPYGGQYVPEILMPALEELEAAYEEIMKDESFWKEFNDLLRDYAGRPTPLYFARRLSEKYGARIYLKREDLLHTGAHKINNAIGQVLLAKKMGKTRIIAETGAGQHGVATATAAALFGMECVIYMGEEDTIRQKPNVERMKLLGAKVVPVKSGSRTLKDAINEALRDWITNLQTTYYVIGSVVGPHPYPIIVRNFQKVIGEETKKQILEKEGRLPDYIVACVGGGSNAAGIFYPFIDSGVKLIGVEAGGEGLETGKHAASLLKGKIGYLHGSKTFVLQDDWGQVQVTHSVSAGLDYSGVGPEHAYWRETGKVLYDAVTDEEALDAFIELSRLEGIIPALESSHALAYLKKINIKGKVVVVNLSGRGDKDLESVLNHPYVRERIRLEHHHHHH
Km [2]: 33 µM

B3: Thermotoga maritima TrpB variant TmTrpB^triple (P19G, I69V, T292S), SEQ ID NO: 34 (Thermotoga maritima MSB8; I69V/P19G/T292S) (protein)
chain: MKGYFGPYGGQYVPEILMGALEELEAAYEEIMKDESFWKEFNDLLRDYAGRPTPLYFARRLSEKYGARVYLKREDLLHTGAHKINNAIGQVLLAKKMGKTRIIAETGAGQHGVATATAAALFGMECVIYMGEEDTIRQKPNVERMKLLGAKVVPVKSGSRTLKDAINEALRDWITNLQTTYYVIGSVVGPHPYPIIVRNFQKVIGEETKKQILEKEGRLPDYIVACVGGGSNAAGIFYPFIDSGVKLIGVEAGGEGLETGKHAASLLKGKIGYLHGSKTFVLQDDWGQVQVSHSVSAGLDYSGVGPEHAYWRETGKVLYDAVTDEEALDAFIELSRLEGIIPALESSHALAYLKKINIKGKVVVVNLSGRGDKDLESVLNHPYVRERIRLEHHHHHH
Km [3]: 26 µM

B4: Escherichia coli TrpB variant M149T N171D (Table 6 prints N171T), parent SEQ ID NO: 8, variant SEQ ID NO: 40 (Escherichia coli K-12; M149T/N171D) (protein)
chain: MTTLLNPYFGEFGGMYVPQILMPALRQLEEAFVSAQKDPEFQAQFNDLLKNYAGRPTALTKCQNITAGTNTTLYLKREDLLHGGAHKTNQVLGQALLAKRMGKTEIIAETGAGQHGVASALASALLGLKCRIYMGAKDVERQSPNVFRTRLMGAEVIPVHSGSATLKDACDEALRDWSGSYETAHYMLGTAAGPHPYPTIVREFQRMIGEETKAQILEREGRLPDAVIACVGGGSNAIGMFADFINETNVGLIGVEPGGHGIETGEHGAPLKHGRVGIYFGMKAPMMQTEDGQIEESYSISAGLDFPSVGPQHAYLNSTGRADYVSITDDEALEAFKTLCLHEGIIPALESSHALAHALKMMRENPDKEQLLVVNLSGRGDKDIFTVHDILKARGEILEHHHHHH
Km [4]: 18 µM

B5: Archaeoglobus fulgidus TrpB variant M156T N178D (Table 6 prints N178T), SEQ ID NO: 24 (Archaeoglobus fulgidus DSM 4304; M156T/N178D) (protein)
chain: MRCWLENLSGGRKMKFGEFGGRFVPEVLIPPLEELEKAYDRFKDDEEFKARLEYYLKSYAGRPTPLYFAENLSRELGVKIYLKREDLLHGGAHKINNTIGQALLAKFMGKKRVIAETGAGQHGVATAMAAALLGLEAEIYMGAEDYERQKMNVFRTELLGAKVTAVESGSRTLKDAIDEALRDWVESFEHTHYLIGSVVGPHPFPTIVRDFQAVIGKEARRQIIEAEGGMPDAIIACVGGGSNAMGIFHPFLNDDVRLIGVEAGGEGIESGRHSASLTAGSKGVLHGMLSYFLQDEEGMMLDTHSVSAGLDYPGVGPEHAYLKETGRCEYVTVNDEEALRAFKTLSKLEGIIPALESAHAIAYAMKMAEEMQRDDVLVVNLSGRGDKDMDIVRRRLALEHHHHHH
Km [5]: 11 µM

B6: Thermotoga maritima TrpB variant M145T N167D (Table 6 prints N167T), SEQ ID NO: 36 (Thermotoga maritima MSB8; M145T/N167D) (protein)
chain: MKGYFGPYGGQYVPEILMPALEELEAAYEEIMKDESFWKEFNDLLRDYAGRPTPLYFARRLSEKYGARIYLKREDLLHTGAHKINNAIGQVLLAKKMGKTRIIAETGAGQHGVATATAAALFGMECVIYMGEEDTIRQKPNVERTKLLGAKVVPVKSGSRTLKDAIDEALRDWITNLQTTYYVIGSVVGPHPYPIIVRNFQKVIGEETKKQILEKEGRLPDYIVACVGGGSNAAGIFYPFIDSGVKLIGVEAGGEGLETGKHAASLLKGKIGYLHGSKTFVLQDDWGQVQVTHSVSAGLDYSGVGPEHAYWRETGKVLYDAVTDEEALDAFIELSRLEGIIPALESSHALAYLKKINIKGKVVVVNLSGRGDKDLESVLNHPYVRERIRLEHHHHHH
Km [6]: 32 µM
